The results in this text go back to publication doi:10.1101/2025.10.03.680336 (bioRxiv, 2025).

Data set [1] has as its target T1, NG-CDK5RAP2-PReM (CDK5RAP2 residues 535-639) (human, UniProt Q96SN8 535-639).
T1 sequence (looked up): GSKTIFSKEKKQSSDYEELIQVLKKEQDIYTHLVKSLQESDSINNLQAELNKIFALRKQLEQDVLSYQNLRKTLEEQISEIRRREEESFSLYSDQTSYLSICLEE
Briefly: fluorescence microscopy of networks formed on mixing purified proteins.

The target of data set [2] is T2, NG-fusion of PReMΔH1 (Cnn 462-608) (Drosophila melanogaster, UniProt P54623-2 462-608).
T2 sequence (looked up): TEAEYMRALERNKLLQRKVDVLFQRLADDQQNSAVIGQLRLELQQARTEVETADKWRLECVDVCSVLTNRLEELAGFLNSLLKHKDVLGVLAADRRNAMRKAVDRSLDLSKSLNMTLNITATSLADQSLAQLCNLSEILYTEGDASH
The description is as above.

Data set [3] concerns the molecule itself. Put plainly: crystal structure.
Data set [4] concerns the molecule itself. Briefly: mass photometry.
Data set [5] deals with the molecule itself. Briefly: SEC-MALS.
Data set [6] deals with T3, full length SPD-5-GFP (C. elegans), P91349.
T3 chain: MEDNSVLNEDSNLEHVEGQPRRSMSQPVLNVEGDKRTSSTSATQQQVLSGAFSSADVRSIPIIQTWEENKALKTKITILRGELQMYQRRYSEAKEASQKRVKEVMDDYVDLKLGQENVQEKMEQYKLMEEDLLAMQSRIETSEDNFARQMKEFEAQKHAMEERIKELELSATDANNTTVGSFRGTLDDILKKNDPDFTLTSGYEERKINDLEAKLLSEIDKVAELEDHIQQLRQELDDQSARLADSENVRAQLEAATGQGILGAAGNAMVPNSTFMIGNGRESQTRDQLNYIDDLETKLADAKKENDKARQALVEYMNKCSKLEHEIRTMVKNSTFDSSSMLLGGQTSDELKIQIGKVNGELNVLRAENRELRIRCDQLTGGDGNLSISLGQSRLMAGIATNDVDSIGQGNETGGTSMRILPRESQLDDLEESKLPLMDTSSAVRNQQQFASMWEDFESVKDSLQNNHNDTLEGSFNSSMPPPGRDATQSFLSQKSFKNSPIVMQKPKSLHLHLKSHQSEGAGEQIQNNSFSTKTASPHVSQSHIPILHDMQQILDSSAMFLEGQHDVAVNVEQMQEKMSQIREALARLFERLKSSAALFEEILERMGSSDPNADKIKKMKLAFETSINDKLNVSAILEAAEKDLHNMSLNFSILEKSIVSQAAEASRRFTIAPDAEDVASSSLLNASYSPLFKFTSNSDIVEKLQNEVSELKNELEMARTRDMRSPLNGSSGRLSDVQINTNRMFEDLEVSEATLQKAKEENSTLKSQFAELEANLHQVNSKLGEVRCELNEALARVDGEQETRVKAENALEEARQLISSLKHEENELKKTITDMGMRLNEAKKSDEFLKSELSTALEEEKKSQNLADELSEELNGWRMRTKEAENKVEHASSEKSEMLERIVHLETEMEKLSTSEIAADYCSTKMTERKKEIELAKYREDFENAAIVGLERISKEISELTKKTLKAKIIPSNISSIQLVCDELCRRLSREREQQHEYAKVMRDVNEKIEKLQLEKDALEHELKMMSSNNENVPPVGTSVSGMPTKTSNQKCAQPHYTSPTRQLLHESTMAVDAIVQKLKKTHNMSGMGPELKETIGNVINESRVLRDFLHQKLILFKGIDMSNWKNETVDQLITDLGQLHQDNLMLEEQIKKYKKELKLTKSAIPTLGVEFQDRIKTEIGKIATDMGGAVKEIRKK
Briefly: mass photometry. The conditions noted are these: remark: other sources report otherwise.

B1: human CDK5RAP2 CM2 (residues 1812-1893) (domain or fragment, UniProt Q96SN8 1812-1893, looked up)
chain: PLHCEQIGEMKAEVTKLHKKLFEQEKKLQNTMKLLQLSKRQEKVIFDQLVVTHKILRKARGNLELRPGGAHPGTCSPSRPGS
Regarding B1, the binding result in data set [1] and in data set [2] was “binds” in each case.

B2: Cnn 490-579 2A mutant (domain or fragment, Drosophila melanogaster, UniProt P54623-2 490-579, looked up)
chain: DQQNSAVIGQLRLELQQARTEVETADKWRLECVDVCSVLTNRLEELAGFLNSLLKHKDVLGVLAADRRNAMRKAVDRALDLAKSLNMTLN
Turning to B2, the binding result in data set [3] is “binds”.

B3: full length Cnn-GFP (natural protein, Drosophila melanogaster, UniProt P54623-2 1-1148, looked up)
chain: MDQSKQVLRDYCGDGNGTCASSLKEITLIETVTSFLEENGAAEIDRRVLRKLAEALSKSIDDTSPGALQDVTMENSYASFDVPRPPGGGNSPLPSQGRSVRELEEQMSALRKENFNLKLRIYFLEEGQPGARADSSTESLSKQLIDAKIEIATLRKTVDVKMELLKDAARAISHHEELQRKADIDSQAIIDELQEQIHAYQMAESGGQPVENIAKTRKMLRLESEVQRLEEELVNIEARNVAARNELEFMLAERLESLTACEGKIQELAIKNSELVERLEKETASAESSNANRDLGAQLADKICELQEAQEKLKERERIHEQACRTIQKLMQKLSSQEKEIKKLNQENEQSANKENDCAKTVISPSSSGRSMSDNEASSQEMSTNLRVRYELKINEQEEKIKQLQTEVKKKTANLQNLVNKELWEKNREVERLTKLLANQQKTLPQISEESAGEADLQQSFTEAEYMRALERNKLLQRKVDVLFQRLADDQQNSAVIGQLRLELQQARTEVETADKWRLECVDVCSVLTNRLEELAGFLNSLLKHKDVLGVLAADRRNAMRKAVDRSLDLSKSLNMTLNITATSLADQSLAQLCNLSEILYTEGDASHKTFNSHEELHAATSMAPTVENLKAENKALKKELEKRRSSEGQRKERRSLPLPSQQFDNQSESEAWSEPDRKVSLARIGLDETSNSLAAPEQAISESESEGRTCATRQDRNRNSERIAQLEEQIAQKDERMLNVQCQMVELDNRYKQEQLRCLDITQQLEQLRAINEALTADLHAIGSHEEERMVELQRQLELKNQQIDQLKLAHSTLTADSQITEMELQALQQQMQEIEQLHADSVETLQSQLQKLKLDAVQQLEEHERLHREALERDWVALTTYQEQAQQLLELQRSLDYHQENEKELKQTLVENELATRALKKQLDESTLQASKAVMERTKAYNDKLQLEKRSEELRLQLEALKEEHQKLLQKRSNSSDVSQSGYTSEEVAVPMGPPSGQATTCKQAAAAVLGQRVNTSSPDLGIESDAGRISSVEVSNAQRAMLKTVEMKTEGSASPKAKSEESTSPDSKSNVATGAATVHDCAKVDLENAELRRKLIRTKRAFEDTYEKLRMANKAKAQVEKDIKNQILKTHNVLRNVRSNMENEL
The term stoichiometry N denotes a count of units in the complex or per binding partner. As for B3, the “stoichiometry N” value in data set [4] turned out to be 2.

B4: MBP-fusion of PReM domain construct Cnn 490-608 (domain or fragment, Drosophila melanogaster, UniProt P54623-2 490-608, looked up)
chain: DQQNSAVIGQLRLELQQARTEVETADKWRLECVDVCSVLTNRLEELAGFLNSLLKHKDVLGVLAADRRNAMRKAVDRSLDLSKSLNMTLNITATSLADQSLAQLCNLSEILYTEGDASH
As for B4, the “stoichiometry N” value in data set [5] is 2.

B5: full length SPD-5-GFP, P91349 1-1198 (natural protein)
chain: T3 chain
In data set [6], B5 returned a stoichiometry N of 2.

B6: MBP-fusion of PReM domain construct Cnn 462-608 (domain or fragment, Drosophila melanogaster, UniProt P54623-2 462-608, looked up)
chain: T2 sequence (looked up)
Consider B6, for which, in data set [5], the “stoichiometry N” value was found to be 2.
